Source: the supplement of paper PMC9112550, “Optimization of the antimicrobial peptide Bac7 by deep mutational scanning” (BMC Biology, 2022)

What follows are sequences tested on Escherichia coli TOP10 (assay: shrunken log2 fold change of peptide-encoding DNA abundance (4.5 h post-induction vs induction); higher = less antimicrobial activity (less host growth inhibition)). Settings: time post-induction: 4.5 h; library: site-saturation at positions 5, 18, 19, 20.
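Also: peptides expressed intracellularly from a pBAD plasmid library in pooled LB shake-flask culture, induced with 0.3% L-arabinose, DNA abundance read by NGS, three biological replicates, DESeq2 with apeglm shrinkage.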

Row | Sequence | shrunken log2 fold change
1 | RRIRYRPPRLPRPRPRPRAHPRP | -0.121
2 | RRIRYRPPRLPRPRPRPRAYPRP | -0.0333
3 | RRIRYRPPRLPRPRPRPREGPRP | 0.251
4 | RRIRYRPPRLPRPRPRPRGEPRP | -0.101
5 | RRIRYRPPRLPRPRPRPRGHPRP | -0.117
6 | RRIRYRPPRLPRPRPRPRHGPRP | -0.0607
7 | RRIRYRPPRLPRPRPRPRLAPRP | 0.299
8 | RRIRYRPPRLPRPRPRPRMWPRP | 0.0356
9 | RRIRYRPPRLPRPRPRPRNCPRP | -0.234
10 | RRIRYRPPRLPRPRPRPRNYPRP | -1.26
11 | RRIRYRPPRLPRPRPRPRPCPRP | -0.117
12 | RRIRYRPPRLPRPRPRPRPHPRP | -0.0677
13 | RRIRYRPPRLPRPRPRPRQHPRP | -0.571
14 | RRIRYRPPRLPRPRPRPRRCPRP | 0.254
15 | RRIRYRPPRLPRPRPRPRRVPRP | 0.00201
16 | RRIRYRPPRLPRPRPRPRRYPRP | -0.492
17 | RRIRYRPPRLPRPRPRPRSQPRP | 0.298
18 | RRIRYRPPRLPRPRPRPRVFPRP | -0.167
19 | RRIRYRPPRLPRPRPRPRVWPRP | 1.85
20 | RRIRYRPPRLPRPRPRPRWEPRP | -0.0931
21 | RRIRYRPPRLPRPRPRPSAMPRP | -0.0964
22 | RRIRYRPPRLPRPRPRPSCFPRP | -0.361
23 | RRIRYRPPRLPRPRPRPSFRPRP | -0.59
24 | RRIRYRPPRLPRPRPRPSGFPRP | -0.99
25 | RRIRYRPPRLPRPRPRPSGHPRP | -0.265

Row | Sequence | shrunken log2 fold change
26 | RRIRYRPPRLPRPRPRPSGVPRP | -0.0951
27 | RRIRYRPPRLPRPRPRPSHPPRP | -0.639
28 | RRIRYRPPRLPRPRPRPSIHPRP | -0.722
29 | RRIRYRPPRLPRPRPRPSKRPRP | -0.236
30 | RRIRYRPPRLPRPRPRPSNIPRP | -1.25
31 | RRIRYRPPRLPRPRPRPSNMPRP | -1.1
32 | RRIRYRPPRLPRPRPRPSPFPRP | 0.0737
33 | RRIRYRPPRLPRPRPRPSPVPRP | -0.612
34 | RRIRYRPPRLPRPRPRPSQLPRP | -0.506
35 | RRIRYRPPRLPRPRPRPSQRPRP | -0.0178
36 | RRIRYRPPRLPRPRPRPSRNPRP | -0.12
37 | RRIRYRPPRLPRPRPRPSSGPRP | 0.00646
38 | RRIRYRPPRLPRPRPRPSSTPRP | -0.158
39 | RRIRYRPPRLPRPRPRPSTDPRP | -0.011
40 | RRIRYRPPRLPRPRPRPSTWPRP | -0.647
41 | RRIRYRPPRLPRPRPRPSVEPRP | -0.481
42 | RRIRYRPPRLPRPRPRPSVIPRP | -0.616
43 | RRIRYRPPRLPRPRPRPSVKPRP | -0.119
44 | RRIRYRPPRLPRPRPRPSVSPRP | -0.747
45 | RRIRYRPPRLPRPRPRPSYAPRP | -0.149
46 | RRIRYRPPRLPRPRPRPSYLPRP | -1.08
47 | RRIRYRPPRLPRPRPRPTANPRP | -0.602
48 | RRIRYRPPRLPRPRPRPTASPRP | -0.389
49 | RRIRYRPPRLPRPRPRPTEMPRP | -0.306
50 | RRIRYRPPRLPRPRPRPTETPRP | -0.00564

Row | Sequence | shrunken log2 fold change
51 | RRIRYRPPRLPRPRPRPTFMPRP | -0.0549
52 | RRIRYRPPRLPRPRPRPTFWPRP | 0.0421
53 | RRIRYRPPRLPRPRPRPTGFPRP | -0.0281
54 | RRIRYRPPRLPRPRPRPTHDPRP | 0.032
55 | RRIRYRPPRLPRPRPRPTIQPRP | -1.09
56 | RRIRYRPPRLPRPRPRPTIYPRP | -0.939
57 | RRIRYRPPRLPRPRPRPTKPPRP | -0.013
58 | RRIRYRPPRLPRPRPRPTKYPRP | -0.836
59 | RRIRYRPPRLPRPRPRPTMFPRP | -0.234
60 | RRIRYRPPRLPRPRPRPTNGPRP | -0.126
61 | RRIRYRPPRLPRPRPRPTNRPRP | -0.363
62 | RRIRYRPPRLPRPRPRPTRHPRP | -0.00457
63 | RRIRYRPPRLPRPRPRPTRPPRP | 0.472
64 | RRIRYRPPRLPRPRPRPTSCPRP | -0.331
65 | RRIRYRPPRLPRPRPRPTSNPRP | -0.276
66 | RRIRYRPPRLPRPRPRPTSWPRP | -0.138
67 | RRIRYRPPRLPRPRPRPTWKPRP | -0.333
68 | RRIRYRPPRLPRPRPRPTYCPRP | -0.165
69 | RRIRYRPPRLPRPRPRPTYHPRP | -0.663
70 | RRIRYRPPRLPRPRPRPTYRPRP | -0.27
71 | RRIRYRPPRLPRPRPRPVACPRP | -0.187
72 | RRIRYRPPRLPRPRPRPVAHPRP | -0.419
73 | RRIRYRPPRLPRPRPRPVCKPRP | -1.41
74 | RRIRYRPPRLPRPRPRPVCNPRP | -0.649
75 | RRIRYRPPRLPRPRPRPVEIPRP | -0.00968

Row | Sequence | shrunken log2 fold change
76 | RRIRYRPPRLPRPRPRPVGFPRP | -0.308
77 | RRIRYRPPRLPRPRPRPVGGPRP | -0.179
78 | RRIRYRPPRLPRPRPRPVGQPRP | -0.106
79 | RRIRYRPPRLPRPRPRPVHWPRP | 0.0233
80 | RRIRYRPPRLPRPRPRPVICPRP | -0.0887
81 | RRIRYRPPRLPRPRPRPVIFPRP | -0.331
82 | RRIRYRPPRLPRPRPRPVIHPRP | -0.0643
83 | RRIRYRPPRLPRPRPRPVIPPRP | -0.0128
84 | RRIRYRPPRLPRPRPRPVIVPRP | -0.877
85 | RRIRYRPPRLPRPRPRPVKIPRP | -0.0138
86 | RRIRYRPPRLPRPRPRPVMEPRP | -0.0459
87 | RRIRYRPPRLPRPRPRPVMLPRP | -0.256
88 | RRIRYRPPRLPRPRPRPVMPPRP | 0.047
89 | RRIRYRPPRLPRPRPRPVNTPRP | -0.473
90 | RRIRYRPPRLPRPRPRPVPIPRP | -0.297
91 | RRIRYRPPRLPRPRPRPVRNPRP | -0.161
92 | RRIRYRPPRLPRPRPRPVSCPRP | -0.0731
93 | RRIRYRPPRLPRPRPRPVSGPRP | -0.128
94 | RRIRYRPPRLPRPRPRPVTYPRP | -0.41
95 | RRIRYRPPRLPRPRPRPVWEPRP | -0.3
96 | RRIRYRPPRLPRPRPRPVWFPRP | -0.129
97 | RRIRYRPPRLPRPRPRPVYEPRP | 2.81
98 | RRIRYRPPRLPRPRPRPVYQPRP | -0.341
99 | RRIRYRPPRLPRPRPRPWAGPRP | -0.53
100 | RRIRYRPPRLPRPRPRPWATPRP | -0.379

Row | Sequence | shrunken log2 fold change
101 | RRIRYRPPRLPRPRPRPWCDPRP | -0.733
102 | RRIRYRPPRLPRPRPRPWCKPRP | -0.00141
103 | RRIRYRPPRLPRPRPRPWCLPRP | -0.634
104 | RRIRYRPPRLPRPRPRPWCRPRP | -0.414
105 | RRIRYRPPRLPRPRPRPWCTPRP | -1.06
106 | RRIRYRPPRLPRPRPRPWDEPRP | -0.999
107 | RRIRYRPPRLPRPRPRPWDLPRP | 0.0112
108 | RRIRYRPPRLPRPRPRPWDQPRP | 0.0123
109 | RRIRYRPPRLPRPRPRPWDTPRP | -0.639
110 | RRIRYRPPRLPRPRPRPWFDPRP | -0.415
111 | RRIRYRPPRLPRPRPRPWFSPRP | -0.346
112 | RRIRYRPPRLPRPRPRPWFTPRP | -0.165
113 | RRIRYRPPRLPRPRPRPWGMPRP | -0.364
114 | RRIRYRPPRLPRPRPRPWGTPRP | -0.0285
115 | RRIRYRPPRLPRPRPRPWKNPRP | -0.458
116 | RRIRYRPPRLPRPRPRPWKSPRP | -0.118
117 | RRIRYRPPRLPRPRPRPWMCPRP | -0.0907
118 | RRIRYRPPRLPRPRPRPWNGPRP | -0.155
119 | RRIRYRPPRLPRPRPRPWQCPRP | 0.06
120 | RRIRYRPPRLPRPRPRPWQKPRP | -0.166
121 | RRIRYRPPRLPRPRPRPWRCPRP | 2.33
122 | RRIRYRPPRLPRPRPRPWRNPRP | -0.00674
123 | RRIRYRPPRLPRPRPRPWRRPRP | -0.104
124 | RRIRYRPPRLPRPRPRPWSAPRP | -0.237
125 | RRIRYRPPRLPRPRPRPWSGPRP | -0.184

Row | Sequence | shrunken log2 fold change
126 | RRIRYRPPRLPRPRPRPWSLPRP | 0.0143
127 | RRIRYRPPRLPRPRPRPWSVPRP | -0.554
128 | RRIRYRPPRLPRPRPRPWTRPRP | 0.0101
129 | RRIRYRPPRLPRPRPRPWWCPRP | -0.139
130 | RRIRYRPPRLPRPRPRPWWEPRP | -0.0644
131 | RRIRYRPPRLPRPRPRPWYLPRP | -0.268
132 | RRIRYRPPRLPRPRPRPWYPPRP | -0.485
133 | RRIRYRPPRLPRPRPRPWYRPRP | 0.729
134 | RRIRYRPPRLPRPRPRPYCDPRP | -0.379
135 | RRIRYRPPRLPRPRPRPYCGPRP | -0.456
136 | RRIRYRPPRLPRPRPRPYCHPRP | -0.435
137 | RRIRYRPPRLPRPRPRPYFKPRP | -1.83
138 | RRIRYRPPRLPRPRPRPYFWPRP | -1.4
139 | RRIRYRPPRLPRPRPRPYFYPRP | -0.49
140 | RRIRYRPPRLPRPRPRPYGSPRP | -0.843
141 | RRIRYRPPRLPRPRPRPYIPPRP | -0.457
142 | RRIRYRPPRLPRPRPRPYIQPRP | -0.294
143 | RRIRYRPPRLPRPRPRPYKWPRP | -0.169
144 | RRIRYRPPRLPRPRPRPYLDPRP | 0.0821
145 | RRIRYRPPRLPRPRPRPYMAPRP | -1.71
146 | RRIRYRPPRLPRPRPRPYMPPRP | -0.00804
147 | RRIRYRPPRLPRPRPRPYNWPRP | -0.593
148 | RRIRYRPPRLPRPRPRPYPIPRP | -0.376
149 | RRIRYRPPRLPRPRPRPYPPPRP | -0.673
150 | RRIRYRPPRLPRPRPRPYPSPRP | -0.248
